Data: patent US20140057830A1 (COMPLIX, published 2014)

B1: SEQ ID NO 38 (designed binder)
chain: GSIEQIQKFIASIQESIARIQKSIYAMTGGSGGSGGGSIEQIQKQIAAIQKQIAAIQKQIYAMTGSGGGGSGGSIEQIQKQITAIARQIVAIIVQITAMTP
notes: Alphabody, AC12 library clone
B2: SEQ ID NO 42 (designed binder)
chain: GSIEQIQKVIAPIQEYIAIIQKYIYAMTGGSGGSGGGSIEQIQKQIAAIQKQIAAIQKQIYAMTGSGGGGSGGSIEQIQKQISAIMRQIYAIISQIQAMTP
notes: Alphabody, AC12 library clone
B3: SEQ ID NO 4 (designed binder)
chain: GSIEQIQKTIAMIQEYIAWIQKKIYAMTGGSGGSGGGSIEQIQKQIAAIQKQIAAIQKQIYAMTGSGGGGSGGSIEQIQKQIRAIVGQIMAILRQITAMTP
notes: Alphabody, AC12 library clone
B4: SEQ ID NO 25 (designed binder)
chain: GSIEQIQKYIARIQEKIAYIQKMIYAMTGGSGGSGGGSIEQIQKQIAAIQKQIAAIQKQIYAMTGSGGGGSGGSIEQIQKQIIAIGSQILAILDQIYAMTP
notes: Alphabody, AC12 library clone
B5: SEQ ID NO 5 (designed binder)
chain: GSIEQIQKFIANIQELIACIQKNIYAMTGGSGGSGGGSIEQIQKQIAAIQKQIAAIQKQIYAMTGSGGGGSGGSIEQIQKQITAIASQIYAIVAQITAMTP
notes: Alphabody, AC12 library clone
B6: SEQ ID NO 3 (designed binder)
chain: GSIEQIQKRIAFIQETIAWIQKNIYAMTGGSGGSGGGSIEQIQKQIAAIQKQIAAIQKQIYAMTGSGGGGSGGSIEQIQKQISAIARQIRAILGQIFAMTP
notes: Alphabody, AC12 library clone
B7: SEQ ID NO 27 (designed binder)
chain: GSIEQIQKWIAQIQENIADIQKLIYAMTGGSGGSGGGSIEQIQKQIAAIQKQIAAIQKQIYAMTGSGGGGSGGSIEQIQKQIPAIAYQILAIIRQISAMTP
notes: Alphabody, AC12 library clone
B8: SEQ ID NO 8 (designed binder)
chain: GSIEQIQKYIAPIQEIIAKIQKLIYAMTGGSGGSGGGSIEQIQKQIAAIQKQIAAIQKQIYAMTGSGGGGSGGSIEQIQKQIGAIISQIGAILGQIYAMTP
notes: Alphabody, AC12 library clone
B9: SEQ ID NO 18 (designed binder)
chain: GSIEQIQKTIASIQEVIAAIQKYIYAMTGGSGGSGGGSIEQIQKQIAAIQKQIAAIQKQIYAMTGSGGGGSGGSIEQIQKQIAAIGSQIIAIVRQIRAMTP
notes: Alphabody, AC12 library clone
B10: SEQ ID NO 13 (designed binder)
chain: GSIEQIQKRIAPIQECIAFIQKLIYAMTGGSGGSGGGSIEQIQKQIAAIQKQIAAIQKQIYAMTGSGGGGSGGSIEQIQKQITAIGRQIMAIFIQIWAMTP
notes: Alphabody, AC12 library clone
B11: SEQ ID NO 59 (designed binder)
chain: GSIEQIQKWIALIQEKIARIQKDIYAMTGGSGGSGGGSIEQIQKQIAAIQKQIAAIQKQIYAMTGSGGGGSGGSIEQIQKQINAIAGQILAIATQIMAMTP
notes: Alphabody, AC12 library clone
B12: SEQ ID NO 43 (designed binder)
chain: GSIEQIQKLIASIQEYIATIQKLIYAMTGGSGGSGGGSIEQIQKQIAAIQKQIAAIQKQIYAMTGSGGGGSGGSIEQIQKQISAIMIQINAILGQIFAMTP
notes: Alphabody, AC12 library clone
B13: SEQ ID NO 61 (designed binder)
chain: GSIEQIQKRIAGIQEYIAKIQKSIYAMTGGSGGSGGGSIEQIQKQIAAIQKQIAAIQKQIYAMTGSGGGGSGGSIEQIQKQISAISRQIVAIVSQILAMTP
notes: Alphabody, AC12 library clone
B14: SEQ ID NO 6 (designed binder)
chain: GSIEQIQKGIALIQEWIAWIQKSIYAMTGGSGGSGGGSIEQIQKQIAAIQKQIAAIQKQIYAMTGSGGGGSGGSIEQIQKQILAISLQIMAILEQIMAMTP
notes: Alphabody, AC12 library clone
B15: SEQ ID NO 26 (designed binder)
chain: GSIEQIQKLIAVIQEYIALIQKKIYAMTGGSGGSGGGSIEQIQKQIAAIQKQIAAIQKQIYAMTGSGGGGSGGSIEQIQKQIKAIATQISAIIRQIFAMTP
notes: Alphabody, AC12 library clone
B16: SEQ ID NO 36 (designed binder)
chain: GSIEQIQKFIAPIQEYIAAIQKIIYAMTGGSGGSGGGSIEQIQKQIAAIQKQIAAIQKQIYAMTGSGGGGSGGSIEQIQKQIAAIASQIKAIVTQIVAMTP
notes: Alphabody, AC12 library clone
B17: SEQ ID NO 47 (designed binder)
chain: GSIEQIQKKIAGIQEVIALIQKFIYAMTGGSGGSGGGSIEQIQKQIAAIQKQIAAIQKQIYAMTGSGGGGSGGSIEQIQKQIRAISSQIQAIVLQILAMTP
notes: Alphabody, AC12 library clone
B18: SEQ ID NO 22 (designed binder)
chain: GSIEQIQKMIAPIQELIARIQKDIYAMTGGSGGSGGGSIEQIQKQIAAIQKQIAAIQKQIYAMTGSGGGGSGGSIEQIQKQIGAITRQILAILVQIGAMTP
notes: Alphabody, AC12 library clone
B19: SEQ ID NO 40 (designed binder)
chain: GSIEQIQKGIAIIQETIAYIQKSIYAMTGGSGGSGGGSIEQIQKQIAAIQKQIAAIQKQIYAMTGSGGGGSGGSIEQIQKQITAIARQITAIIAQIFAMTP
notes: Alphabody, AC12 library clone
B20: SEQ ID NO 31 (designed binder)
chain: GSIEQIQKTIARIQEGIAVIQKLIYAMTGGSGGSGGGSIEQIQKQIAAIQKQIAAIQKQIYAMTGSGGGGSGGSIEQIQKQIRAIVRQITAIMTQIFAMTP
notes: Alphabody, AC12 library clone
B21: SEQ ID NO 9 (designed binder)
chain: GSIEQIQKKIATIQEYIAYIQKFIYAMTGGSGGSGGGSIEQIQKQIAAIQKQIAAIQKQIYAMTGSGGGGSGGSIEQIQKQIKAILGQIGAIIGQIWAMTP
notes: Alphabody, AC12 library clone
B22: SEQ ID NO 10 (designed binder)
chain: GSIEQIQKKIAVIQEVIAGIQKGIYAMTGGSGGSGGGSIEQIQKQIAAIQKQIAAIQKQIYAMTGSGGGGSGGSIEQIQKQISAIIIQITAIVKQIMAMTP
notes: Alphabody, AC12 library clone
B23: SEQ ID NO 50 (designed binder)
chain: GSIEQIQKAIAKIQETIAFIQKSIYAMTGGSGGSGGGSIEQIQKQIAAIQKQIAAIQKQIYAMTGSGGGGSGGSIEQIQKQITAIAGQIYAILQQIFAMTP
notes: Alphabody, AC12 library clone
B24: SEQ ID NO 23 (designed binder)
chain: GSIEQIQKFIASIQECIARIQKTIYAMTGGSGGSGGGSIEQIQKQIAAIQKQIAAIQKQIYAMTGSGGGGSGGSIEQIQKQIKAIRTQIFAIFRQIYAMTP
notes: Alphabody, AC12 library clone
B25: SEQ ID NO 33 (designed binder)
chain: GSIEQIQKGIAPIQEMIASIQKVIYAMTGGSGGSGGGSIEQIQKQIAAIQKQIAAIQKQIYAMTGSGGGGSGGSIEQIQKQIMAIAFQIFAIMRQILAMTP
notes: Alphabody, AC12 library clone
B26: SEQ ID NO 29 (designed binder)
chain: GSIEQIQKLIARIQESIAMIQKKIYAMTGGSGGSGGGSIEQIQKQIAAIQKQIAAIQKQIYAMTGSGGGGSGGSIEQIQKQIIAIAKQILAIVSQIKAMTP
notes: Alphabody, AC12 library clone
B27: SEQ ID NO 19 (designed binder)
chain: GSIEQIQKTIAAIQECIARIQKAIYAMTGGSGGSGGGSIEQIQKQIAAIQKQIAAIQKQIYAMTGSGGGGSGGSIEQIQKQIRAIVSQISAILIQIGAMTP
notes: Alphabody, AC12 library clone
B28: SEQ ID NO 2 (designed binder)
chain: GSIEQIQKGIARIQEVIAKIQKGIYAMTGGSGGSGGGSIEQIQKQIAAIQKQIAAIQKQIYAMTGSGGGGSGGSIEQIQKQIVAITHQITAIIWQIWAMTP
notes: Alphabody, AC12 library clone
B29: SEQ ID NO 20 (designed binder)
chain: GSIEQIQKVIARIQEVIASIQKYIYAMTGGSGGSGGGSIEQIQKQIAAIQKQIAAIQKQIYAMTGSGGGGSGGSIEQIQKQIGAIVTQILAIISQITAMTP
notes: Alphabody, AC12 library clone

These binders were tested against T1, human IL-23 (human, UniProt Q9NPF7 20-189; P29460 23-328) (assay: phage ELISA; IL-23 captured by anti-p40 antibody).
T1 construct: Heterodimer p19/p40; in the ELISA captured on the plate through a biotinylated anti-p40 antibody (clone C8.6); also called cytokine IL-23 (eBioscience, 34-8239-85)
T1 sequence (looked up) 1: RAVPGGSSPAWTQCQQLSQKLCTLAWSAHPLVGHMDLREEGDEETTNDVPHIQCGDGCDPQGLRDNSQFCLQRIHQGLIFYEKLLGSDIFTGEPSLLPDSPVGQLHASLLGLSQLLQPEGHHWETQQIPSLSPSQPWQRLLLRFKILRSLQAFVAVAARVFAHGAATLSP
T1 sequence (looked up) 2: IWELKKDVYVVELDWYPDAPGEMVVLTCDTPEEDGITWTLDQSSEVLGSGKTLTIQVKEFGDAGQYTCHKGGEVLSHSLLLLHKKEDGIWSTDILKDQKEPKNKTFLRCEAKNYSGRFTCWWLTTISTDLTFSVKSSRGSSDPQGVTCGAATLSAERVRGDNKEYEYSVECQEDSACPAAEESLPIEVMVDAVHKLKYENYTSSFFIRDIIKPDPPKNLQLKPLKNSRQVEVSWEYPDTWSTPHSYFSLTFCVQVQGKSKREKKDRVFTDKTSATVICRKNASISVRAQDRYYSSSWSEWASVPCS
Method: The set-up of the ELISA was as follows. Neutravidin was immobilized on the plate at a concentration of 0.010 mg/ml in PBS (0.100 ml) for 1 hour at room temperature (RT). Plates were washed 5 times with PBS containing 0.05% Tween 20 (PBST) for 5 min. Subsequently, 0.1 ml Biotinylated anti-p40 antibody (100 nM) was added to the plates in PBS containing 0.1% BSA and incubated overnight at 4° C. or at RT for 1 hour. After incubation, plates were washed 5 times with PBST and blocked with PBS containing 0.1% BSA and 0.5% gelatin (0.120 ml/well) for at least 1 hour at room temperature or overnight at 4° C. After washing 5 times with PBST, 100 nM IL-23 (target) was added to 0.1 ml PBS, 0.1% BSA. For individual negative controls no IL-23 was added (background).
In the meantime, the bacteria plates were centrifuged at 1700 rpm for 10 min to pellet the bacteria. Plates with the immobilized IL-23 were washed 5 times with PBST and 0.050 ml of PBS with 0.2% BSA were added to the plate together with 0.050 ml of the bacterial culture supernatant containing phage. Plates were incubated for 1 to 1.5 hours at room temperature while shaking. Shaking of the plates enhanced the ELISA signals.

Binding result, binds:
B1
B2
B3
B4
B5
B6
B7
B8
B9
B10
B11
B12
B13
B14
B15
B16
B17
B18
B19
B20
B21
B22
B23
B24
B25
B26
B27
B28
B29
